This is an account of results in paper doi:10.1101/2024.09.22.614354 (bioRxiv, 2024).

Experiment in all cases: fluorescence polarisation
Assay [1] has as its target T1, wild type Rb pocket domain (Rb^P) (human, UniProt P06400 380-788).
T1 sequence: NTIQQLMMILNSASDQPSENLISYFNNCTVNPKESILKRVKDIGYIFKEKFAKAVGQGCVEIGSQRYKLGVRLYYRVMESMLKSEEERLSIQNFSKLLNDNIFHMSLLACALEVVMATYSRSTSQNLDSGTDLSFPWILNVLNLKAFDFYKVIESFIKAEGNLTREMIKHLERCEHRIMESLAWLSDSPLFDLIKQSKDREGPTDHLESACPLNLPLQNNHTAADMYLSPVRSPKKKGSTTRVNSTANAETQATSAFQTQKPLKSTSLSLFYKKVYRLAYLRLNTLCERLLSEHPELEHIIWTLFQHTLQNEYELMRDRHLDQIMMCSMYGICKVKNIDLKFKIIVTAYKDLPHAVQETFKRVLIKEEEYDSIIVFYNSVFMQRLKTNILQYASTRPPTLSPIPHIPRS

A further assay addresses T2, Rb^P I703F (human, UniProt P06400 380-788, I703F).
T2 sequence: T1 sequence with I324F

The next assay addresses T3, Rb^P M704V (human, UniProt P06400 380-788, M704V).
T3 sequence: T1 sequence with M325V

Another assay addresses T4, Rb^P E554K (human, UniProt P06400 380-788, E554K).
T4 sequence: T1 sequence with E175K

The next assay concerns the target T5, Rb^P S751Y (human, UniProt P06400 380-788, S751Y).
T5 sequence: T1 sequence with S372Y

For assay [2], the target named is T1, wild type Rb pocket domain (Rb^P). The source holds these as a separate data set.

Numbering of substitutions follows the chain as printed. Where two headings read alike, the source gives them in different places.

B1: TMR-E7^LxCxE (LxCxE peptide of the E7 oncoprotein from HPV, TMR-labeled) (peptide)
peptide: DLYCYEQLN
modifications: not fully specified; TMR fluorescent label (TMR-E7^LxCxE)
Turning to B1, the Kd in assay [1] is 7 nM; with Rb^P I703F, 53 nM; with Rb^P M704V it was 14 nM; with Rb^P E554K, 24 nM; with Rb^P S751Y, 12 nM; in assay [2], 5 nM.
